Data on one sequence can be found in patent US20200048693.

This data set deals with dsDNase (shrimp double strand-specific DNase). Description: cleavage_in_vitro. The following applies: DNA strand of hybrid cleaved, RNA strand almost not; First-Strand buffer, 37 C.

“CGCCATCGGAGGTTC / GAACCUCCGAUGGCG [RNA-DNA hybrid dual probe]” showed a relative cleavage activity (fraction of dsDNA activity) of 0.5.
